Key:
[1] = molecular target: T1, mouse Ecad (recombinant protein, BioLegend) (mouse, UniProt P09803 157-709, limits assumed); test: phage ELISA; relative affinity estimated against the FLAG antibody signal
T1 construct: Bought recombinant protein; Also used here for the general statements of mouse cross-reactivity; also called mouse E-cadherin
T1 sequence (looked up): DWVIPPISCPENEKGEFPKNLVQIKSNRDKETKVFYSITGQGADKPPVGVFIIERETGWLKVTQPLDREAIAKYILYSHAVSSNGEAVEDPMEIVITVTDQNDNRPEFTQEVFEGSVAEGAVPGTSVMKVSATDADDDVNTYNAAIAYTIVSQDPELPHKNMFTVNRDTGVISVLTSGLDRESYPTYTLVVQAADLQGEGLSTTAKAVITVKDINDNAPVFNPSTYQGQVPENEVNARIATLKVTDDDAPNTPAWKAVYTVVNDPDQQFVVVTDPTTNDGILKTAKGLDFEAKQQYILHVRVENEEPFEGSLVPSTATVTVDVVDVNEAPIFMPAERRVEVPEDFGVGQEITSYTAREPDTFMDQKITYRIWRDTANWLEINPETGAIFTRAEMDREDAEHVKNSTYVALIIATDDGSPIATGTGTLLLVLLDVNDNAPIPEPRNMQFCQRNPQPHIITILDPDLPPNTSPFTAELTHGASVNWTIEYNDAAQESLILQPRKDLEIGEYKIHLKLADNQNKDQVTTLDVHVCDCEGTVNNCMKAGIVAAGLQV
Description: (§1) hmcECAD.6 scFv sequence was generated and optimized for binding to Ecad protein through phage display library selection. A naive human scFv library of approximately 2×10⁹ diversity was used to screen against recombinant Ecad protein (Biomolecular Discovery, Rochester, NY). The hmcECAD.6 scFv clone was identified after two rounds of screening against mouse Ecad followed by another round of panning on human Ecad Fc chimeric protein (both from BioLegend, San Diego, CA). […] Final hmcECAD.6 sequence (SEQ ID NO: 90) was codon optimized for cloning of heavy and light chain into EcCAR plasmid.

[2] = molecular target: T2, Recombinant Human E-cadherin Fc chimera (BioLegend) (human, UniProt P12830 155-707); test: phage display panning
T2 construct: also called human Ecad Fc chimeric protein; recombinant human Ecad Fc chimera; Fc part of the bought chimera not given
T2 sequence (looked up): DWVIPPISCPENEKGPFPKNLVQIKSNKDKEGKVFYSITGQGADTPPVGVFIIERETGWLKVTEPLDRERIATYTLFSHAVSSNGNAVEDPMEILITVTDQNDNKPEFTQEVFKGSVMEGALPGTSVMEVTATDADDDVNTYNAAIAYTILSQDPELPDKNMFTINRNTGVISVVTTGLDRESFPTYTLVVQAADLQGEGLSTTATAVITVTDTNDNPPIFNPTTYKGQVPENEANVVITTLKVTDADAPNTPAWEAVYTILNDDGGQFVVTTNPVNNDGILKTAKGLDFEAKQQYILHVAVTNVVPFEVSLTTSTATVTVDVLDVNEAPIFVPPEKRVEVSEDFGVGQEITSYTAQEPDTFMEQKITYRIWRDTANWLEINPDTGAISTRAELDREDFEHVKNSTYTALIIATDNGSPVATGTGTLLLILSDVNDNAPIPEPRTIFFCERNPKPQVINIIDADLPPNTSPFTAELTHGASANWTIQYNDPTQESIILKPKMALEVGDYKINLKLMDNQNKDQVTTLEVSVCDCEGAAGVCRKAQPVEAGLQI
Description: as §1

B1: hmcECAD.6 scFv clone (scFv)
scFv: LPVLTQPPSASGTPGQRVTISCSGSSSNIGSNYVYWYQQLPGTAPKLLIYRNNQRPSGVPDRFSGSKSGTSASLAISGLQSEDEADYYCASWDTSLRAWVFGGGTKLTVLGEGKSSGSGSESKASEVQLVQSGGGLVQPGGSLRLSCAASGFTFSSYSMNWVRQAPGKGLEWVSYISSSSSTIYYVDSVKGRFTISRDNAKNSLYLQMDSLRAEDTAVYYCARGGRVLVGALFDYWGQGTLVTVSS
notes: Human scFv from a naive phage display library; also called anti-hmcECAD.6; anti-Ecad scFv
For B1, the Kd [1] was ~5 nM and the binding result [2] was “binds”.

Source: US20260240994A1 (MAYO FOUNDATION FOR MEDICAL EDUCATION AND RESEARCH, published 2026)
